Source: IntAct's records for PubMed 15883825

B1: F-box protein MET30 (Saccharomyces cerevisiae), P39014 (parent)
chain: MRRERQRMMSFEDKDKDDLDNSNSNNSSEMTDTAMMPPLKRLLITGSSDDLAQGSSGKKKMTMATRSPSSSPDLATNDSGTRVQPLPEYNFTKFCYRHNPDIQFSPTHTACYKQDLKRTQEINANIAKLPLQEQSDIHHIISKYSNSNDKIRKLILDGILSTSCFPQLSYISSLVTHMIKIDFISILPQELSLKILSYLDCQSLCNATRVCRKWQKLADDDRVWYHMCEQHIDRKCPNCGWGLPLLHMKRARIQQNSTGSSSNADIQTQTTRPWKVIYRERFKVESNWRKGHCRIQEFKGHMDGVLTLQFNYRLLFTGSYDSTIGIWDLFTGKLIRRLSGHSDGVKTLYFDDRKLITGSLDKTIRVWNYITGECISTYRGHSDSVLSVDSYQKVIVSGSADKTVKVWHVESRTCYTLRGHTEWVNCVKLHPKSFSCFSCSDDTTIRMWDIRTNSCLKVFRGHVGQVQKIIPLTIKDVENLATDNTSDGSSPQDDPTMTDGADESDTPSNEQETVLDENIPYPTHLLSCGLDNTIKLWDVKTGKCIRTQFGHVEGVWDIAADNFRIISGSHDGSIKVWDLQSGKCMHTFNGRRLQRETQHTQTQSLGDKVAPIACVCIGDSECFSGDEFGCVKMYKFDLND
partner: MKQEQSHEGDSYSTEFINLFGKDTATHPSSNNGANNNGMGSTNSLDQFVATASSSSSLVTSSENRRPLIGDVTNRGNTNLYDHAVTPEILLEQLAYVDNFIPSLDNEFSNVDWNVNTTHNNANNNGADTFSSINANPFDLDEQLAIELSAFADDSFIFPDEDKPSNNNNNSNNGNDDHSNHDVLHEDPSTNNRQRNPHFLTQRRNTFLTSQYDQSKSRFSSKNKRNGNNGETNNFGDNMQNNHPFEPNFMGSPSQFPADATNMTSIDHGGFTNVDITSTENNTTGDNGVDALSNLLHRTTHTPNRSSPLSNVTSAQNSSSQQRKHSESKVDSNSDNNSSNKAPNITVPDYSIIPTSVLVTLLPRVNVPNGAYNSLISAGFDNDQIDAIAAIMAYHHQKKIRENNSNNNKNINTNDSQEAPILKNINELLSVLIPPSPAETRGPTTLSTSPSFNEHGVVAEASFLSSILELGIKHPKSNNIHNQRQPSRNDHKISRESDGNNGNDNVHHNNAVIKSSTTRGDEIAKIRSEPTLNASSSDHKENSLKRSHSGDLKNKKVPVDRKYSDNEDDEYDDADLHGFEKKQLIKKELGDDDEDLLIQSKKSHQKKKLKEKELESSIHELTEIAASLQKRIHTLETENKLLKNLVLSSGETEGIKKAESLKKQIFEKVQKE

Variants of: B1
Conditions: with met4_yeast MET4, P32389

effect of a mutation on the interaction | Variant
decreasing interaction | L386D;N425A;Q467A;L530D
